Results: article PMC7054686, “A revised model of TRAIL‐R2 DISC assembly explains how FLIP(L) can inhibit or promote apoptosis” (EMBO Reports, 2020)

Target: recombinant FLIP DED1/2 (amino acids 1–184) with a C‐terminal His‐tag (UniProt O15519 1-184)
Assay: AlphaScreen or HTRF; cell-free AlphaScreen: FLIP DED1/2-His on nickel chelate acceptor beads, GST-FADD DED on glutathione donor beads; 25 mM Tris pH 7.5, 300 mM NaCl, 0.0007% Tween-20, 0.05% BSA; room temperature; 25 μl in 384-well plate
Conditions: both partners purified

B1: recombinant FADD DED (amino acids 1–90) with an N‐terminal GST‐tag (domain or fragment)
chain: MDPFLVLLHSVSSSLSSSELTELKFLCLGRVGKRKLERVQSGLDLFSMLLEQNDLEPGHTELLRELLASLRRHDLLRRVDDFEAGAAAGA
notes: FADD, death effector domain, amino acids 1-90; Held by glutathione donor beads in the AlphaScreen; source: recombinant; not shown: GST, N-terminal, kept
- binding result: binds
